Measurements from patent US20240109945A1 (published 2024).
Positions count from the first letter of the chain named. In names and notes the source's numbering stands. No end group written: not given here. M3N2 = N-glycan

T1: biotinylated N-glycopeptide A3Man (AVSHN(M3N2)ASLE) (also: biotinylated, position not given here)
T1 peptide: AVSHN(M3N2)ASLE

B1: Variant Fbs1-7 (designed binder)
chain: MGSSHHHHHHHHSSGENLYFQSHMASQQEGLVPEGSADEERDHWQQFYFLSKRRRNLLRNPCGEEDLEGWSDVEHGGDGWRVERLPGDGGVEFTQDDSVKKYFASSYRWCRKAQVIDLQAEGYWEELLDTTQPAIVVKDWYSGRTDAGSLYELTVRLLSENEDVLAEFATGQVAVPEDGSWMEISHTFIDYGPGVRFVRFEHGGQDSVYWKGWFGARVTNSSVWVEP
B2: Variant Fbs1-8 (designed binder)
chain: B1 chain with E83R
B3: Variant Fbs1-6 (designed binder)
chain: B1 chain with E83R, R84E
B4: Variant Fbs1-2 (designed binder)
chain: B1 chain with R84E, G89N
B5: Variant Fbs1-3 (designed binder)
chain: B1 chain with R84E
B6: Variant Fbs1-1 (designed binder)
chain: B1 chain with R84E, G89N, Y107F, R108E
B7: Fbs1-6 (E153R.N159G.F177Y.E178R) (designed binder)
chain: B1 chain with E83R, R84E
B8: Fbs1-2 (F177Y.E178R) (designed binder)
chain: B1 chain with R84E, G89N
B9: Fbs1-1 (WT) (designed binder)
chain: B1 chain with R84E, G89N, Y107F, R108E
B10: Fbs1-8 (E153R.E154R.N159G.F177Y.E178R) (designed binder)
chain: B1 chain with E83R
B11: Fbs1-7 (E154R.N159G.F177Y.E178R) (designed binder)
chain: B1 chain
B12: Fbs1-3 (N159G.F177Y.E178R) (designed binder)
chain: B1 chain with R84E

Target: T1, biotinylated N-glycopeptide A3Man …
Assay: BLI
B1 gave a Kd of 860 nM. B2 was tested, and the Kd was 1140 nM. B3 gave a Kd of 200 nM. B4 gave a Kd of 610 nM. With B5 the Kd was 880 nM. With B6 the Kd was 4300 nM.

The binders below were run against G2PB (assay: BLI).
B7 gave a Kd of 790 nM. For B8, the Kd was 26800 nM. B9 showed a Kd of 27500 nM. For B10, the Kd was 1190 nM. B11 was tested, and the Kd was 1450 nM. B12 showed a Kd of 540 nM.
